Source: patent publication US6372467
Where a chain is given by its changes, count along the chain named. Names may count otherwise.

B1: hemagglutinin (HA)-tagged p54^S6K (protein)
chain: MAAVFDLDLETEEGSEGEGEPELSPADACPLAELRAAGLEPVGHYEEVELTETSVNVGPERIGPHCFELLRVLGKGGYGKVFQVRKVQGTNLGKIYAMKVLRKAKIVRNAKDTAHTRAERNILESVKHPFIVELAYAFQTGGKLYLILECLSGGELFTHLEREGIFLEDTACFYLAEITLALGHLHSQGIIYRDLKPENIMLSSQGHIKLTDFGLCKESIHEGAVTHTFCGTIEYMAPEILVRSGHNRAVDWWSLGALMYDMLTGSPPFTAENRKKTMDKIIRGKLALPPYLTPDARDLVKKFLKRNPSQRIGGGPGDAADVQRHPFFRHMNWDDLLAWRVDPPFRPCLQSEEDVSQFDTRFTRQTPVDSPDDTALSESANQAFLGFTYVAPSVLDSIKEGFSFQPKLRSPRRLNSSPRVPVSPLKFSPFEGFRPSPSLPEPTELPLPPLLPPPPPSTTAPLPIRPPSGTKKSKRGRGRPGR
B2: HA-p54^S6K KR (protein)
chain: B1 chain with K99R

Experiments:
[1] = target: Glutathione-S-transferase (GST)-tagged S6

| Protein | in vitro kinase assay (phosphorylation of GST-S6 by anti-HA immunoprecipitates) [1] | in vitro kinase assay (screen of substrates) (histone H2B) |
| --- | --- | --- |
| B1 | p54^S6K kinase activity towards S6 was stimulated by serum treatment of the cells | p54^S6K can phosphorylate both S6 and histone H2B |
| B2 | The KR mutation of p54^S6K abolished the kinase activity in an in vitro kinase assay | – |
